Assay results from patent US20040214227A1, “Bioluminescence resonance energy transfer (bret) fusion molecule and method of use” (priority 1999, published 2004).
Blank lines part the entries; values can stand above or below the molecule they belong to.

Columns and labels:
[1] = biological target: Rluc:EYFP fusion protein, N-terminal His tag, purified from bacteria (pQE-32) (UniProt P27652)
[2] = biological target: Rluc:enterokinase:EYFP fusion protein, N-terminal His tag, purified from bacteria (pQE-32) (UniProt P27652)
[3] = system: HeLa cells transfected with the GFP1:Caspase-3:Rluc sensor; assay: apoptosis induction BRET assay, GFP1:Caspase-3:Rluc sensor; assay type: cell-based; conditions: 1 μM staurosporine, 5 hours, 37° C.; DeepBlueC; at time zero; ratio decreased
Method: (§1) PGFP1:caspase-3:Rluc DNAs and the original plasmid pGFP1::Rluc (without the caspase-3 site) were transfected into HeLa cell using LipofectAMINE (BRL/Gibco-Life technologies) in 100 mm dishes and 8 μg of plasmid DNA as described in the manufacturer's protocol. Twenty-four hours post-transfection transfected cells were harvested and distributed into 96-well microtiterplate (white Optiplate from Packard) at a density of 30 000 cells per well. The following day, cells were washed with PBS and were induced to undergo apoptosis by adding 100 μl of Iscove media without serum and phenol red (BRL/Life Technologies) containing staurosporine at a final concentration of 1 μM (+inducer; see FIG. 13) or 100 μl of Iscove alone (-inducer). Cells were incubated for 5 hours at 37° C. After this period, 50 μl of BRET buffer (PBS Ca^2+/Mg^2++glucose without aprotinin) and 50 μl of DeepBlueC (20 μM) were added to start the bioluminescence reaction. Total assay volume was 200 μl. Light emissions were detected using the BRETCount (read length of 1 sec. for each filter, SPC mode, temperature 25° C.).

[4] = system: HeLa cells transfected with the apoptosis Rluc:Caspase:EYFP sensor; assay: apoptosis induction BRET assay, Rluc:Caspase:EYFP sensor; assay type: cell-based; conditions: 1 μM staurosporine, 5 hours, 37° C.; coelenterazine h; ratios decreased
Method: pCEP4/Rluc-EYFP and pCEP4/Rluc-caspase-EYFP DNAs were transfected into HeLa cell using LipofectAMINE (BRL/Gibco-Life technologies) in 100 mm dishes as described in the manufacturer's protocol. 24 hours post-transfection, transfected cells were harvested and distributed into 96-well microtiterplates (white Optiplate from Packard) at a density of 30,000 cells per well. The following day, cells were induced to undergo apoptosis using 1 μM staurosporine dissolved in ISCOVE media (BRL/Gibco-Life technologies) without serum and phenol red at 37° C. (total volume here is 100 μl) for 5 hours. 50 μl of BRET buffer (PBS Ca^2+/Mg^2++glucose without aprotinin) and 50 μl of coelenterazine h (20 μM) were added to start the bioluminescence reaction. Light emissions were detected using the BRETCount (read length 1 sec for each filter, temperature 25° C.). Data was collected 10 minutes after the addition of coelenterazine h. The assay was done in quadruplicate.

[5] = system: HeLa cells transfected with pGFP1::Rluc; assay: apoptosis induction BRET assay, control construct without caspase-3 site; assay type: cell-based; conditions: 1 μM staurosporine, 5 hours
Method: as §1

[6] = biological target: Rluc:caspase:EYFP fusion protein expressed in HeLa cells (pCEP4/Rluc-caspase-EYFP) (Renilla) (UniProt P27652); assay: cell-based or functional assay
[7] = biological target: GFP1:caspase-3:Rluc fusion protein expressed in HeLa cells (pGFP1:caspase-3:Rluc) (Aequorea victoria; Renilla) [GFP: P42212]; assay: cell-based or functional assay

Rluc:caspase:EYFP fusion protein expressed in HeLa cells (pCEP4/Rluc-caspase-EYFP) (Renilla), sequence (P27652 other isoform, or with tags, fused parts or gaps): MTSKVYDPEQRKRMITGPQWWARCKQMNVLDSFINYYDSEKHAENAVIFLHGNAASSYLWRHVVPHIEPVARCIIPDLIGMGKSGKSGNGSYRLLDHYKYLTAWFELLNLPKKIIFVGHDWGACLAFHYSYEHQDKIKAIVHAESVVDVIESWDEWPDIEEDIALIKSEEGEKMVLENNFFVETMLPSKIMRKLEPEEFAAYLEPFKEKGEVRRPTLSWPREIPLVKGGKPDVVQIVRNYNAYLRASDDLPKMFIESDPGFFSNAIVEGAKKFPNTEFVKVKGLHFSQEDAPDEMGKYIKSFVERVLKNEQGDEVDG
Rluc:enterokinase:EYFP fusion protein, N-terminal His tag, purified from bacteria (pQE-32), sequence (P27652 other isoform, or with tags, fused parts or gaps): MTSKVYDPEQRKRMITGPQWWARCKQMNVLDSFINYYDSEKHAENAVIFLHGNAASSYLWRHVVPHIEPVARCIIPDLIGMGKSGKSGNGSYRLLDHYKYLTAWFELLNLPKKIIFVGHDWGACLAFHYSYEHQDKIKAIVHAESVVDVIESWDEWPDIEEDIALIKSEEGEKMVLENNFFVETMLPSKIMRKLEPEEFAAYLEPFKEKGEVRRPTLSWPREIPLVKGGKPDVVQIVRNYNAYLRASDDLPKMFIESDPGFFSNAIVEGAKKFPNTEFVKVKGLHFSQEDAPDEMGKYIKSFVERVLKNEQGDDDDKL
Rluc:EYFP fusion protein, N-terminal His tag, purified from bacteria (pQE-32), sequence (P27652 whole entry, the tested form may be a part): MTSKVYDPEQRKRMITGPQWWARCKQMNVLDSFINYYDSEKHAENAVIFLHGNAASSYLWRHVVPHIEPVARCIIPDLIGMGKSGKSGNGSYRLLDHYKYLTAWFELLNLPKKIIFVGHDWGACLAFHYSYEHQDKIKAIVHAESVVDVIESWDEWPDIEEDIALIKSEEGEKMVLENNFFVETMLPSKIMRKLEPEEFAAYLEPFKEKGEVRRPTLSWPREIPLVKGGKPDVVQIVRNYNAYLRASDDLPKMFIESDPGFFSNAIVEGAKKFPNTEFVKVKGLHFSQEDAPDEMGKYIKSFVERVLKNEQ

Molecule: enterokinase enzyme (Invitrogen, Carlsbad, Calif.)
BRET ratio (emission at 550 nm / 470 nm) over four hours, purified protein with two units of enterokinase [1]: The ratios from the negative controls (Rluc and Rluc:EYFP) did not change over time when in the presence or absence of the enterokinase enzyme
BRET ratio (emission at 550 nm / 470 nm) over four hours, purified protein with two units of enterokinase [2]: Only the ratio for the construct Rluc:enterokinase:EYFP in the presence of the enterokinase enzyme decreased over time

Molecule: CN[C@@H]1C[C@H]2O[C@@](C)([C@@H]1OC)n1c3ccccc3c3c4c(c5c6ccccc6n2c5c31)C(=O)NC4 [staurosporine]
BRET ratio change [3]: 0.72 unit
BRET ratio change [4]: 0.1 unit
change in BRET ratio [5]: No change in BRET ratio

BRET ratio change in transfected HeLa cells after 5 hours of apoptosis induction by 1 uM staurosporine (unit (BRET ratio)) [6]: 0.1
BRET ratio change in transfected HeLa cells after 5 hours of apoptosis induction by 1 uM staurosporine (unit (BRET ratio)) [7]: 0.72
Molecule: cellular caspase-3 (HeLa cells) (from UniProt P42574 29-277) (enzyme)
